Assay [1] addresses T1, CTLA4 (antigen of Examples 10 and 13) (UniProt P16410 36-161, limits assumed).
T1 construct: Immobilised antigen in the Octet assay
The assay can be described thus: BLI (Octet); antigen immobilised, B-Body as analyte. The source says: In each instance, the antigen is immobilized and the B-Body is the analyte.

In assay [2] the target is T2, muCD25 transiently expressed on Expi293 cells (Expi293-muCD25) (mouse, UniProt P01590 22-268).
T2 construct: whole, on cells; also called murine CD25; single positive CD25+ cells
T2 sequence (looked up): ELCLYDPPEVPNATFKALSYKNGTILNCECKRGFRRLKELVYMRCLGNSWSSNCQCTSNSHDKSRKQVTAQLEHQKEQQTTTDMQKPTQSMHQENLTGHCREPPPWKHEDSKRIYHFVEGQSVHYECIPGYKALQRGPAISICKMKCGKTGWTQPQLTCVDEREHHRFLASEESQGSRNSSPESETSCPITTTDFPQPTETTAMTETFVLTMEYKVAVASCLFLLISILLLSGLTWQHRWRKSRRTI
Description: flow cytometry, biotinylated mouse IL-2 on Expi293 muCD25 cells, streptavidin-PE. (In general: A flow cytometer gives signals particle by particle.)

Assay [3] addresses T3, huCTLA4 (biotinylated human CTLA4 for BLI) (human, UniProt P16410 36-161, limits assumed, biotinylated).
T3 construct: also called Target 2
The assay can be described thus: BLI steady state analysis; biotinylated antigen on streptavidin sensor, bispecific 2 µM to 31.25 nM.

In assay [4] the target is T4, mouse CTLA4 (target of muSNIPER and anti-muCTLA4) (mouse, UniProt P09793 36-161, limits assumed, biotinylated in the blocking assay).
T4 construct: also called Target 2
The assay can be described thus: BLI, biotinylated mouse CTLA4 (B-mTarget2) on streptavidin sensor, then antibody or CD86 ligand.

Assay [5] addresses T4, mouse CTLA4 (target of muSNIPER and …). Description: monovalent affinity, summary in Table 29 (text: biolayer interferometry; data not shown); monovalent, CTLA4 alone. Background: Biolayer interferometry detects binding as a change in optical thickness at a sensor tip.
For assay [6], the target named is T5, mouse CD25 + CTLA4 together (Table 29) (mouse, UniProt P01590 22-236; P09793 36-161, limits assumed).
T5 construct: the format is not described
The assay can be described thus: bivalent affinity to both CD25 and CTLA4, summary in Table 29; bivalent, CD25 + CTLA4 together.

In assay [7] the target is T6, mouse CD25 (target of muSNIPER in Table 29) (mouse, UniProt P01590 22-236, limits assumed).
T6 construct: also called muCD25
T6 sequence (looked up): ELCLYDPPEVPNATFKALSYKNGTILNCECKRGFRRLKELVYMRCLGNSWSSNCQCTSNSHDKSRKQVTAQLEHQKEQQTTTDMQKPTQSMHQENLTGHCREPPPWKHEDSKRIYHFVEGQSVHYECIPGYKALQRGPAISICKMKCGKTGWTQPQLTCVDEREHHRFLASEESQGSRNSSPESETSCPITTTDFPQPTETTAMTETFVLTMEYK
Description: monovalent affinity, summary in Table 29 (text: biolayer interferometry; data not shown); monovalent, CD25 alone.

T4 sequence (P09793 36-161 limits assumed): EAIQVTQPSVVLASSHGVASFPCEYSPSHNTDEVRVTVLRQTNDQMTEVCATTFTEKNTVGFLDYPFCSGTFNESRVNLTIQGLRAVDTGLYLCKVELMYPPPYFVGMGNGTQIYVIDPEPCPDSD
T1 sequence (P16410 36-161 limits assumed): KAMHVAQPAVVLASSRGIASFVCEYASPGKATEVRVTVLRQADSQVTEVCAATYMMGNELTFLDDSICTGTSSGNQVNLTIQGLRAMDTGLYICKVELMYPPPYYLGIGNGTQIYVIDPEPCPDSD
T3 sequence (P16410 36-161 limits assumed): as above
T5 sequence (P09793 36-161 limits assumed, one chain of several): as the sequence (P09793 36-161 limits assumed) above

B1: bivalent bispecific B-Body “BC1” (bispecific antibody)
chain 1: not shown
chain 2: EVQLVESGGGLVQPGGSLRLSCAASGFTFSDYDIHWVRQAPGKGLEWVGDITPYDGTTNYADSVKGRFTISADTSKNTAYLQMNSLRAEDTAVYYCARLVGEIATGFDYWGQGTLVTVSSASPREPQVYTDPPSRDELTKNQVSLTCLVKGFYPSDIAVEWESNGQPENNYKTTPPVLDSDGSFFLYSKLTVDKSRWQQGNVFSCSVMHEALHNHYTQKSLSLSGEC
chain 3: not shown
chain 4: QVQLVESGGGVVQPGRSLRLDCKASGITFSNSGMHWVRQAPGKGLEWVAVIWYDGSKRYYADSVKGRFTISRDNSKNTLFLQMNSLRAEDTAVYYCATNDDYWGQGTLVTVSSASTKGPSVFPLAPSSKSTSGGTAALGCLVKDYFPEPVTVSWNSGALTSGVHTFPAVLQSSGLYSLSSVVTVPSSSLGTQTYICNVNHKPSNTKVDKKVEPPKSC
notes: A:F site specific for Antigen A, H:L site (nivolumab) specific for human PD1
Turning to B1, the binding result in assay [1] is reported as “no binding”.

B2: biotinylated mouse recombinant IL-2 ligand (ligand, UniProt P04351 21-169, looked up)
chain: APTSSSTSSSTAEAQQQQQQQQQQQQHLEQLLMDLQELLSRMENYRNLKLPRMLTFKFYLPKQATELKDLQCLEDELGPLRHVLDLTQSKSFQLEDAENFISNIRVTVVKLKGSDNTFECQFDDESATVVDFLRRWIAFCQSIISTSPQ
modifications: biotinylated
As for B2, the binding result in assay [2] is recorded as “binds”.

B3: BC1 1×1 B-Body huSNIPER 19×8 binding molecule (bispecific antibody)
chain 1: not shown
chain 2: EVQLVESGGGLVQPGGSLRLSCAASGFTFSGYWIHWVRQAPGKGLEWVAAITSRDSYTYYADSVKGRFTISADTSKNTAYLQMNSLRAEDTAVYYCARGSYLGSAFDYWGQGTLVTVSSASPREPQVYTDPPSRDELTKNQVSLTCLVKGFYPSDIAVEWESNGQPENNYKTTPPVLDSDGSFFLYSKLTVDKSRWQQGNVFSCSVMHEALHNHYTQKSLSLSGEC
chain 3: SDIQMTQSPSSLSASVGDRVTITCRASQSVSSAVAWYQQKPGKAPKLLIYSASSLYSGVPSRFSGSRSGTDFTLTISSLQPEDFATYYCQQYSSQPATFGQGTKVEIKRTVAAPSVFIFPPSDEQLKSGTASVVCLLNNFYPREAKVQWKVDNALQSGNSQESVTEQDSKDSTYSLSSTLTLSKADYEKHKVYACEVTHQGLSSPVTKSFNRGECDKTHTCPPCPAPELLGGPSVFLFPPKPKDTLMISRTPEVTCVVVDVSHEDPEVKFNWYVDGVEVHNAKTKPREEQYNSTYRVVSVLTVLHQDWLNGKEYKCKVSNKALPAPIEKTISKAKGQPREPQVCTLPPSREEMTKNQVSLSCAVKGFYPSDIAVEWESNGQPENNYKTTPPVLDSDGSFFLVSKLTVDKSRWQQGNVFSCSVMHEALHNHYTQKSLSLSPGK
chain 4: EVQLVESGGGLVQPGGSLRLSCAASGFTFSSYYIHWVRQAPGKGLEWVAKIQPKGGYTYYADSVKGRFTISADTSKNTAYLQMNSLRAEDTAVYYCARSYYYRPHAFDYWGQGTLVTVSSASTKGPSVFPLAPSSKSTSGGTAALGCLVKDYFPEPVTVSWNSGALTSGVHTFPAVLQSSGLYSLSSVVTVPSSSLGTQTYICNVNHKPSNTKVDKKVEPPKSC
As for B3, in assay [3], the Kd amounted to 19 nM.

B4: anti-muCTLA4, parental bivalent monospecific monoclonal antibody (antibody, IgG1, V domains shown)
VH: EVQLVESGGGLVQPGGSLRLSCAASGFTFSSYYIHWVRQAPGKGLEWVASISSYADYTDYADSVKGRFTISADTSKNTAYLQMNSLRAEDTAVYYCARQSYYGLDYWGQGTLVTVSS
VL: DIQMTQSPSSLSASVGDRVTITCRASQSVSSAVAWYQQKPGKAPKLLIYSASSLYSGVPSRFSGSRSGTDFTLTISSLQPEDFATYYCQQLSRGPSTFGQGTKVEIK
notes: Parent antibodies of the discovery campaign are in a human full-length IgG1 format; copies: 2 + 2
Turning to B4, the binding result in assay [4] is listed as “binds”.

B5: Mouse Surrogate SNIPER antibody (muSNIPER) (bispecific antibody)
chain 1: not shown
chain 2: EVQLVESGGGLVQPGGSLRLSCAASGFTFSSYYIHWVRQAPGKGLEWVASISSYADYTDYADSVKGRFTISADTSKNTAYLQMNSLRAEDTAVYYCARQSYYGLDYWGQGTLVTVSSASPREPQVYTDPPSRDELTKNQVSLTCLVKGFYPSDIAVEWESNGQPENNYKTTPPVLDSDGSFFLYSKLTVDKSRWQQGNVFSCSVMHEALHNHYTQKSLSLSGEC
chain 3: DIQMTQSPSSLSASVGDRVTITCRASQSVSSAVAWYQQKPGKAPKLLIYSASSLYSGVPSRFSGSRSGTDFTLTISSLQPEDFATYYCQQWYTSPLTFGQGTKVEIKRTVAAPSVFIFPPSDEQLKSGTASVVCLLNNFYPREAKVQWKVDNALQSGNSQESVTEQDSKDSTYSLSSTLTLSKADYEKHKVYACEVTHQGLSSPVTKSFNRGECDKTHTCPPCPAPELLGGPSVFLFPPKPKDTLMISRTPEVTCVVVDVSHEDPEVKFNWYVDGVEVHNAKTKPREEQYNSTYRVVSVLTVLHQDWLNGKEYKCKVSNKALPAPIEKTISKAKGQPREPQVCTLPPSREEMTKNQVSLSCAVKGFYPSDIAVEWESNGQPENNYKTTPPVLDSDGSFFLVSKLTVDKSRWQQGNVFSCSVMHEALHNHYTQKSLSLSPGK
chain 4: EVQLVESGGGLVQPGGSLRLSCAASGFTFRQYFIHWVRQAPGKGLEWVAAIHPDSDFTYYADSVKGRFTISADTSKNTAYLQMNSLRAEDTAVYYCARGGVAIESGYALDYWGQGTLVTVSSASTKGPSVFPLAPSSKSTSGGTAALGCLVKDYFPEPVTVSWNSGALTSGVHTFPAVLQSSGLYSLSSVVTVPSSSLGTQTYICNVNHKPSNTKVDKKVEPPKSC
notes: Chains 1 and 2 form the CTLA4 arm, chains 3 and 4 the CD25 arm; BC1 scaffold; also called mSNIPER; muSINPER
For the molecule B5, the values for the Kd in assay [5], in assay [6] and in assay [7] were greater than 100 nM, less than 5 nM and greater than 300 nM, respectively.

The record behind these values is patent publication US20220153844A1 (INVENRA, published 2022).
